Reference: paper PMC2917807 (Journal of molecular biology, 2010)

T1: LexA-SoxS bait fusion protein (pGILDA-SoxS), wild type SoxS (Escherichia coli, UniProt P0A9E2 1-107)
T1 sequence (looked up): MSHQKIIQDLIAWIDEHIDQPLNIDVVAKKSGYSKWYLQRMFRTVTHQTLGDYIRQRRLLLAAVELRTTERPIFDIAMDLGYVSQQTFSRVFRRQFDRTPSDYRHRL

B1: B42AD-σ^70 R4 prey fusion protein (pB42AD-σ^70 R4), wild type region 4 of σ^70 (domain or fragment, Escherichia coli, UniProt P00579 530-613, looked up)
chain: LPLDSATTESLRAATHDVLAGLTAREAKVLRMRFGIDMNTDYTLEEVGKQFDVTRERIRQIEAKALRKLRHPSRSEVLRSFLDD

Legend:
[1] = biological target: LexA-SoxS bait fusion protein (pGILDA-SoxS), wild type SoxS (Escherichia coli) (UniProt P0A9E2); experiment: two-hybrid
[2] = biological target: T1, LexA-SoxS bait fusion protein …; experiment: two-hybrid

Row | Molecule | induction ratio of reporter β-galactosidase [1] | induction ratio of reporter β-galactosidase [2]
1 | B42AD-αCTD prey fusion protein (pB42AD-αCTD) (domain or fragment) | 25 | –
2 | B1 | – | 14
